Laboratory results as given in article PMC8715544 (JACS Au, 2021).

Molecular target: the molecule itself
Assay: SEC

B1: Escherichia coli methionine adenosyltransferase eMAT (enzyme)
chain: MAKHLFTSESVSEGHPDKIADQISDAVLDAILEQDPKARVACETYVKTGMVLVGGEITTSAWVDIEEITRNTVREIGYVHSDMGFDANSCAVLSAIGKQSPDINQGVDRADPLEQGAGDQGLMFGYATNETDVLMPAPITYAHRLVQRQAEVRKNGTLPWLRPDAKSQVTFQYDDGKIVGIDAVVLSTQHSEEIDQKSLQEAVMEEIIKPILPAEWLTSATKFFINPTGRFVIGGPMGDCGLTGRKIIVDTYGGMARHGGGAFSGKDPSKVDRSAAYAARYVAKNIVAAGLADRCEIQVSYAIGVAEPTSIMVETFGTEKVPSEQLTLLVREFFDLRPYGLIQMLDLLHPIYKETAAYGHFGREHFPWEKTDKAQLLRDAAGLK
  stoichiometry N: 4
